This assay concerns the target T1, human CD161 (human, UniProt Q12918 1-225).
T1 construct: UniProt Q12918; also called hCD161; KLRB1
Put plainly: blocking assay by flow cytometry: 500 nM biCLEC2D on Jurkat hCD161+ cells with 1, 10 or 100 nM antibody, SA-AF647; blocked ligand biCLEC2D; control 500 nM biCLEC2D on Jurkat WT.

From patent publication US20210122826A1 (MIT, published 2021) come the findings set out here.

B1: KM12.3.2 (antibody, V domains shown)
VH: EVQLVESGGGLVQPGGSLRLSCAASGFTFSSYAMSWIRQAPGKGLEWVSAISGSGGSIYYADSVKGRFTISRDNSKNTLYLQMDSLRAEDTAVYYCARGYSDSYFYGPYYTFDYWGQGTLVTVSS
VL: not shown
As to B1, the binding result was “binds”.
